Patent US20190382503A1 (published 2019)

Legend:
human 5T4 on cells = molecular target: T1, human 5T4 on cells (UniProt Q13641 32-420); test: FACS binding CT26 human 5T4 cells; CT26 cells
T1 chain: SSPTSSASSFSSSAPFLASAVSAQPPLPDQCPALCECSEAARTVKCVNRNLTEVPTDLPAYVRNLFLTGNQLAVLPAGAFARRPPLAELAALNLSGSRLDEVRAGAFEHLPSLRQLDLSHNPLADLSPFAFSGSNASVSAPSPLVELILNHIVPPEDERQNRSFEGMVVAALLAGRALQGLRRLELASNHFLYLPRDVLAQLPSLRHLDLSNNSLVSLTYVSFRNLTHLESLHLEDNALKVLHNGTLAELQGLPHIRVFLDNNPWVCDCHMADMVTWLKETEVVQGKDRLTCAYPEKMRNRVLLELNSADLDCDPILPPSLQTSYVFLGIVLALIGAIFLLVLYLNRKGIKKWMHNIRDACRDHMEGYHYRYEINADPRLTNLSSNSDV

cynomolgus 5T4 on cells = molecular target: T2, cynomolgus 5T4 on cells (cynomolgus macaque, UniProt Q4R8Y9 35-420); test: FACS binding CHO-K1/cynomolgus 5T4 cells
T2 chain: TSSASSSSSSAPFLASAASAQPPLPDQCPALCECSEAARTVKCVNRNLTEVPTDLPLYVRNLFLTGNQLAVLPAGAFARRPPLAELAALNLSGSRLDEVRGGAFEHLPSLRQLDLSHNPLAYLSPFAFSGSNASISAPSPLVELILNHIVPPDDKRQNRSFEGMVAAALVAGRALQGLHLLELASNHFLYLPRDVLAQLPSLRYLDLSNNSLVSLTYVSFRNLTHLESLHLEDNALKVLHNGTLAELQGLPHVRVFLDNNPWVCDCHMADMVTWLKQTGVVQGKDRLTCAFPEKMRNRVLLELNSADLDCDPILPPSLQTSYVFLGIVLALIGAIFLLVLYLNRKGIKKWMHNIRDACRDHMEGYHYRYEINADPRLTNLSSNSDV

human CD137 on cells = human CD137 on cells (UniProt Q07011 24-255); test: FACS binding CHO-K1/human CD137 cells
human CD137 on cells, sequence (Q07011 24-255): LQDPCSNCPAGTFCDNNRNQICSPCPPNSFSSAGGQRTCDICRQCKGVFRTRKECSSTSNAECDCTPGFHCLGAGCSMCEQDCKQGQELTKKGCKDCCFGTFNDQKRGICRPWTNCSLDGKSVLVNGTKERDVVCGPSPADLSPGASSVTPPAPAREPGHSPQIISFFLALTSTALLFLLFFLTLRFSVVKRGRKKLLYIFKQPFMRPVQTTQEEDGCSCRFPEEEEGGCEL

B1: ALG.APV-004 (bispecific antibody)
chain 1: EVQLLESGGGLVQPGGSLRLSCAASGFTFSYGSMYWVRQAPGKGLEWVSSISSGSGSTYYADSVKGRFTISRDNSKNTLYLQMNSLRAEDTAVYYCARSSYYGSYYSIDYWGQGTLVTVSSEVQLLESGGGLVQPGGSLRLSCAASGFTFSSYAMSWVRQAPGKCLEWVSAISGSGGSTYYADSVKGRFTISRDNSKNTLYLQMNSLRAEDTAVYYCARYYGGYYSAWMDYWGQGTLVTVSSDIQMTQSPSSLSASVGDRVTITCRASQSISSYLNWYQQKPGKAPKLLIYAASSLQSGVPSRFSGSGSGTDFTLTISSLQPEDFATYYCQQTYGYLHTFGCGTRLEIK
chain 2: DIQMTQSPSSLSASVGDRVTITCRASQSISSYLNWYQQKPGKAPKLLIYAASSLQSGVPSRFSGSGSGTDFTLTISSLQPEDFATYYCQQYYDNLPTFGQGTKLEIK
In the case of B1, the EC50 (human 5T4 on cells) is reported as 1.5 nM, the EC50 (cynomolgus 5T4 on cells) is reported as 6.5 nM and the EC50 (human CD137 on cells) is reported as 0.39 nM.
